We go through three substances from paper PMC9907325.

Test [1] addresses Fc-tagged human IL-2Rαβγ (Acro, ILG-H5257) (human) (UniProt P01589).
Test [2] has as its target His-tagged human IL-2Rα (Acro, ILA-H5251) (human) (UniProt P01589). As to the kind of experiment: SPR; His-tagged human, mouse or cynomolgus IL-2Rα chemically immobilised by amine coupling on CM5 chips; 2-fold dilutions of HCW9302 or IL-2 injected 90 s, dissociation 210 s; regeneration 3 M magnesium chloride; 1:1 fitting model; KD apparent.
For test [3], the target named is His-tagged mouse IL-2Rα (Acro, ILG-M52H9) (mouse) (UniProt P01590). The test is described as above.
Test [4] deals with His-tagged cynomolgus IL-2Rα (Sino, 90265-C08H) (cynomolgus monkey). The description is as above.
Test [5] has as its target Fc-tagged human IL-2Rβγ (Acro, ILG-H5254) (human) (UniProt P14784). As to the kind of experiment: SPR; Biacore 8K; Fc-tagged receptors captured by immobilised anti-human IgG (Fc) antibody on CM5 chips; 2-fold dilutions of HCW9302 or IL-2 injected 120 s, dissociation 300 s; regeneration 3 M magnesium chloride; 1:1 fitting model; KD apparent. (SPR reads the build-up and loss of mass on a sensor chip optically.)

Test [6] concerns the target Fc-tagged human IL-2Rαβγ (Acro, ILG-H5257) (human) (UniProt P01589). Described as above.
Test [7] deals with Fc-tagged human IL-2Rα (Acro, ILA-H5251) (human) (UniProt P01589). Described as above.
Test [8] concerns the target HCW9302 (IL-2/TF/IL-2 fusion protein) (human) (UniProt P13726). As to the kind of experiment: SEC; HPLC-SEC profile of purified native HCW9302. For orientation: SEC sorts molecules by how far they enter the pores of the column.

Sequence of UniProt P14784 (P14784 27-240, chain 1 of 2): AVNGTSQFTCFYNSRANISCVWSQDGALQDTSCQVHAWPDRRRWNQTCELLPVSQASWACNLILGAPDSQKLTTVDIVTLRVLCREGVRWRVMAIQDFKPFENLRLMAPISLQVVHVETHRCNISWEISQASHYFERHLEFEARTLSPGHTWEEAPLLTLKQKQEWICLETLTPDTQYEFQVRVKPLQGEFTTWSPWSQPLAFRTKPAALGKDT
Sequence of UniProt P14784 (P31785 23-262, chain 2 of 2, further chain): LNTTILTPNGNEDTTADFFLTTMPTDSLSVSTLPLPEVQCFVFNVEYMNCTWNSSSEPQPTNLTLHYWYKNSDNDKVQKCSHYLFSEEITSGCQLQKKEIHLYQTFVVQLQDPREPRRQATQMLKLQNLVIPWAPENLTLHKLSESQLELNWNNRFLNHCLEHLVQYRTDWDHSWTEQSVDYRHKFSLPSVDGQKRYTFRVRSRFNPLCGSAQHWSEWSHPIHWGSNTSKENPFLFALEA
Sequence of UniProt P01590 (P01590 22-236): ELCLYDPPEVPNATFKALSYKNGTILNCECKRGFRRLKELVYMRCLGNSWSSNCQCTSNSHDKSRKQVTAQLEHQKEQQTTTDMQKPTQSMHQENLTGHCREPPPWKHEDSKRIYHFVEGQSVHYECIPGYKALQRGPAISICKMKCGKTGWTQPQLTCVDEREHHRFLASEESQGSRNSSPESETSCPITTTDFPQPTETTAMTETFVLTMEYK

As a reminder, the koff is the rate constant with which the complex falls apart. One may read the kon as the rate constant with which the complex forms. By stoichiometry N is commonly meant the number of molecules, sites or subunits per partner or assembly. Substance “HCW9302 (IL-2/TF/IL-2 fusion protein) (from UniProt P13726 33-251) (ligand)” registered a phosphorylation of STAT5 in human Treg cells (PBMC, 30 min, 0.15-15000 pM), half-maximal stimulation (EC50) in test [1] of 6.12 pM. In addition, the Kd in test [2] stood at 0.0132 nM; in test [3], 0.296 nM; in test [4], 0.00319 nM; in test [5] it was 0.117 nM; in test [6] it was 0.00201 nM; in test [7], 0.00199 nM. In addition, the koff was found to be 0.00289 s⁻¹ in test [2]; 0.000918 s⁻¹ in test [3]; 0.000457 s⁻¹ in test [4]; 0.00017 s⁻¹ in test [5]; 0.000771 s⁻¹ in test [6]; 0.107 s⁻¹ in test [7]. Further, the kon in test [2] stood at 2.18e+08 M⁻¹ s⁻¹; in test [3], 3.1e+06 M⁻¹ s⁻¹; in test [4] it was 1.43e+08 M⁻¹ s⁻¹; in test [5], 1.45e+06 M⁻¹ s⁻¹; in test [6], 3.83e+08 M⁻¹ s⁻¹. Moreover, the stoichiometry N in test [8] came out at 2.
In test [1], “aldesleukin (Proleukin), clinical grade rhIL-2 (from UniProt P60568 21-153) (ligand)” displayed a phosphorylation of STAT5 in human Treg cells (PBMC, 30 min, 0.15-15000 pM), half-maximal stimulation (EC50) of 43.1 pM.
In the case of “human IL-2 (Acro, S13-H5113) (from UniProt P60568 21-153) (ligand)”, in test [4], the Kd is 16.3 nM, the koff was 0.212 s⁻¹ and the kon is 1.3e+08 M⁻¹ s⁻¹.
